B1: CPEB3 Ribozyme (parent)
chain: GGGGGCCACAGCAGAAGCGUUCACGUCGCGGCCCCUGUCAGAUUCUGGUGAAUCUGCGAAUUCUGCUGU

Consider 167 variants from the RNAGym collection of RNA variant scans (doi:10.7554/elife.80360).

Variants of B1 are the subject of this data set. Briefly: self-cleavage, relative activity (ratio to wild type); higher = more cleavage; co-transcriptional.
As for C27G U36A, the self-cleavage came to 0.18. On to C27A G30A, for which the self-cleavage was found to be 0.176.

As to C27A G30C, the self-cleavage amounted to 0.138. With C27U C33G, the self-cleavage was determined as 0.206. For C27U C33A the value was 0.271; for C27U C33U, 0.345. For the variant C27A A59C, the self-cleavage came out at 0.247. C27A A59U: the self-cleavage turned out to be 0.245. For C27A U62A the value was 0.288; for C27A U62C, 0.365. Then C27A U62G, with 0.241.

For U26G U62C, the self-cleavage is 0.674. As to C27A C45G, the self-cleavage came to 0.578. As to C27A C45A, the self-cleavage turned out to be 0.504. Then U26G C66G, with 0.693; and U26G G41A, with 0.539. Then U26G G41C, with 0.561; and U26G U64C, with 0.756.

For the variant U26G U64A, the self-cleavage was 0.692. Consider U26G A51G, for which the self-cleavage was 0.787. Regarding U26G A51C, the self-cleavage came to 0.838. As to U26G A51U, the self-cleavage was 0.871.

For the variant C27A G37C, the self-cleavage amounted to 0.17.

With C27A G37U, the self-cleavage turned out to be 0.17. Then C27U C57A, with 0.242; and C27U C57G, with 0.166. C27U G50A: the self-cleavage was determined as 0.371. In the case of C27U G50U, the self-cleavage came to 0.396.

In the case of C27U G56C, the self-cleavage was 0.194. Then C27U G56A, with 0.308; and C27U C29A, with 0.192. For U26G G28C, the self-cleavage is 0.133. In the case of C27G U62G, the self-cleavage came to 0.241.

Take C27G U62A: the self-cleavage was determined as 0.122. For C27G U62C the value was 0.257; for U26G G58A, 0.557. For U26G G58U the value was 0.87; for C27G G30U, 0.149; for C27G G30C, 0.279.

As for C27G G30A, the self-cleavage was 0.228.

For U26G A52C, the self-cleavage stood at 0.912. Turning to U26G A52U, the self-cleavage came out at 0.868.

For the variant U26G A52G, the self-cleavage came to 0.914.

On to C27G U64G, for which the self-cleavage stood at 0.25.

For C27G U64A, the self-cleavage was found to be 0.215. Then U26G G48U, with 0.923; and C27G C57A, with 0.131; and C27G C57G, with 0.175. For C27G C66A, the self-cleavage came out at 0.174. Then C27G C66U, with 0.156; and U26G A42U, with 0.828; and U26G A42C, with 0.86. Then U26G A60U, with 0.393. For the variant C27G C34G, the self-cleavage was 0.142. For C27G C34U the value was 0.223. Regarding C27U C35A, the self-cleavage was determined as 0.158. For C27U C35U, the self-cleavage came to 0.318. For U26G G47C the value was 0.965. For C27U G37C the value was 0.147.

On to C27U G37U, for which the self-cleavage turned out to be 0.0803. For C27G G28C the value was 0.13. On to C27G G28U, for which the self-cleavage was 0.154. U26G G50A: the self-cleavage was 0.927.

As for U26G G50C, the self-cleavage was determined as 0.962. For U26G G50U the value was 0.928. For U26G U43A the value was 0.766; for U26G U43C, 0.863. For U26G U43G the value was 0.801.

As to U26G C45A, the self-cleavage is 0.951. Then U26G C45G, with 0.87; and C27G A42G, with 0.15; and C27G A42C, with 0.177. For C27A U44G the value was 0.295; for C27A U44A, 0.439. Then C27A U44C, with 0.354. As to U26G A59G, the self-cleavage is 0.959. For U26G A59C the value was 0.36; for C27G C63G, 0.225; for C27G C63U, 0.209.

As to C27U C39A, the self-cleavage is 0.186. For C27U C39G, the self-cleavage came out at 0.164. As for C27G G41A, the self-cleavage came out at 0.154. Turning to C27G G41U, the self-cleavage was 0.151. For the variant U26G C54A, the self-cleavage was found to be 0.708.

On to U26G C54U, for which the self-cleavage was found to be 0.931.

On to U26G C54G, for which the self-cleavage worked out at 0.694.

For the variant C27G G31A, the self-cleavage turned out to be 0.174. As for C27G G31C, the self-cleavage worked out at 0.174.

On to C27U A40U, for which the self-cleavage was determined as 0.207. On to C27U A40G, for which the self-cleavage was 0.192. On to C27A U61G, for which the self-cleavage was 0.367. For C27A U61C the value was 0.191; for C27A U53A, 0.344. With C27A U53C, the self-cleavage turned out to be 0.213. For C27G U46A the value was 0.162; for C27G U46C, 0.181; for C27G U46G, 0.188.

For C27U C45G, the self-cleavage worked out at 0.243. Regarding U26G C33U, the self-cleavage stood at 0.833. For U26G C33A the value was 0.827; for U26G C33G, 0.437; for C27A C66G, 0.327. For C27A C66A the value was 0.334; for C27U A60C, 0.192. For C27U A60G, the self-cleavage came out at 0.254. For U26G U38G the value was 0.171; for U26G U38C, 0.664. As to U26G U38A, the self-cleavage was 0.375. For C27A G50A the value was 0.587.

As for C27A G50C, the self-cleavage was determined as 0.493. Then C27A G50U, with 0.647; and C27G, with 0.197. Turning to C27U, the self-cleavage was 0.417. For C27A the value was 0.711; for C27G C29G, 0.208; for C27G U43C, 0.239.

Turning to C27A U55C, the self-cleavage came out at 0.272. Then C27A U55A, with 0.237. For C27A U55G the value was 0.226; for C27G C39U, 0.138; for C27U C63U, 0.17.

For the variant C27A A51U, the self-cleavage came to 0.577. With C27U C66U, the self-cleavage worked out at 0.203. For C27U C66A the value was 0.179.

With C27U C66G, the self-cleavage is 0.262.

For C27G U69C, the self-cleavage worked out at 0.374. For C27G U69A the value was 0.267. For C27G A59G, the self-cleavage was 0.259. Take C27G A59C: the self-cleavage worked out at 0.151.

For the variant C27G A59U, the self-cleavage came out at 0.216. Then C27U U38C, with 0.268. Turning to C27U U38A, the self-cleavage is 0.281. For U26G G31A, the self-cleavage was found to be 0.555.

For the variant C27A A60U, the self-cleavage came out at 0.249. C27A A60G: the self-cleavage amounted to 0.253. Regarding U26G G56A, the self-cleavage was 0.729. Then U26G G56C, with 0.356; and U26G G56U, with 0.814; and C27A C54A, with 0.25.

In the case of C27U C32U, the self-cleavage is 0.403.

Consider C27U C32A, for which the self-cleavage turned out to be 0.227. For C27U C32G the value was 0.186; for C27A U67C, 0.66. Then C27A U67A, with 0.685; and C27G U49A, with 0.209.

On to C27G U49C, for which the self-cleavage was 0.22. Turning to C27G U49G, the self-cleavage is 0.112.

In the case of C27G G48A, the self-cleavage was found to be 0.156. Then C27G G56C, with 0.135; and U26G U67G, with 0.968. Then U26G U67A, with 0.854; and U26G U67C, with 0.91; and U26G G65C, with 0.646. For U26G G65A the value was 0.643. As for C27U U36G, the self-cleavage was 0.188. Then C27U U36A, with 0.167; and C27G G58C, with 0.231; and C27G G58U, with 0.193.

C27A G31C: the self-cleavage turned out to be 0.181. Then U26G C63U, with 0.893; and U26G C63A, with 0.581; and C27G C54U, with 0.151. With C27G C54G, the self-cleavage was determined as 0.169. In the case of U26G A40G, the self-cleavage worked out at 0.75. Regarding U26G A40U, the self-cleavage stood at 0.602.

Take U26G A40C: the self-cleavage was 0.395. Then U26G G37U, with 0.185.
